From publication PMC12985673 come the findings set out here.

The target of this assay is NRXβ1 ECD (amino acids 81 to 311), His-tagged, labelled with Alexa Fluor 488, P0DI97. Description: fluorescence polarisation. The conditions noted are these: chain shown with the change; Hill equation fit, shared slope n = 1.05 ± 0.05; NL2 concentration 0-8 µM; parent: 6.2 ± 0.4 µM.
Chain of NRXβ1 ECD (amino acids 81 to 311), His-tagged, labelled with Alexa Fluor 488, P0DI97 (P0DI97 other isoform, or with tags, fused parts or gaps): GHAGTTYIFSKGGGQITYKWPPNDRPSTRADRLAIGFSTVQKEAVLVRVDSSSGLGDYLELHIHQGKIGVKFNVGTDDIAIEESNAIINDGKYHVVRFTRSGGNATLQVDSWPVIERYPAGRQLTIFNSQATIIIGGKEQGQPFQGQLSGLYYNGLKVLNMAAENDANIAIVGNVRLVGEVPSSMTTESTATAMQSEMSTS

B1: full-length neuroligin 2 (NL2), mouse, without the splice insert at site A, Q69ZK9 H279Y; G282K (protein)
chain: MWLLALCLVGLAGAQRGGGGPGGGAPGGPGLGLGSLGEERFPVVNTAYGRVRGVRRELNNEILGPVVQFLGVPYATPPLGARRFQPPEAPASWPGVRNATTLPPACPQNLHGALPAIMLPVWFTDNLEAAATYVQNQSEDCLYLNLYVPTEDGPLTKKRDEATLNPPDTDIRDSGKKPVMLFLHGGSYMEGTGNMFDGSVLAAYGNVIVVTLNYRLGVLGFLSTGDQAAKGNYGLLDQIQALRWLSENIAHFGGDPERITIFGSGAGASCVNLLILSHYSEKLFQKAIAQSGTAISSWSVNYQPLKYTRLLAAKVGCDREDSTEAVECLRRKSSRELVDQDVQPARYHIAFGPVVDGDVVPDDPEILMQQGEFLNYDMLIGVNQGEGLKFVEDSAESEDGVSASAFDFTVSNFVDNLYGYPEGKDVLRETIKFMYTDWADRDNGEMRRKTLLALFTDHQWVAPAVATAKLHADYQSPVYFYTFYHHCQAEGRPEWADAAHGDELPYVFGVPMVGATDLFPCNFSKNDVMLSAVVMTYWTNFAKTGDPNQPVPQDTKFIHTKPNRFEEVVWSKFNSKEKQYLHIGLKPRVRDNYRANKVAFWLELVPHLHNLHTELFTTTTRLPPYATRWPPRTPGPGTSGTRRPPPPATLPPESDIDLGPRAYDRFPGDSRDYSTELSVTVAVGASLLFLNILAFAALYYKRDRRQELRCRRLSPPGGSGSGVPGGGPLLPTAGRELPPEEELVSLQLKRGGGVGADPAEALRPACPPDYTLALRRAPDDVPLLAPGALTLLPSGLGPPPPPPPPSLHPFGPFPPPPPTATSHNNTLPHPHSTTRV
B1: the equilibrium dissociation constant (Kd) was 320 nM.
